Experimental data: US8840891 (RSR, dated 2014)
Like-named read-outs stand apart in the source and are kept apart here.

Legend:
[1] = target: TSHR coated onto tubes (human) (UniProt P16473); assay: TSHR coated tubes, competitor 125I-M22 IgG
[2] = target: TSHR with Asp151 mutated to Arginine (human) (UniProt P16473); assay: cell-based or functional assay
[3] = target: wild type human TSHR (human) (UniProt P16473); assay: cell-based or functional assay
[4] = target: TSHR coated onto tubes (human) (UniProt P16473); assay: TSHR coated tubes, competitor 125I-TSH
[5] = target: TSHR with Lys129 mutated to Alanine (human) (UniProt P16473); assay: cell-based or functional assay
[6] = target: wild type human TSHR (human) (UniProt P16473); assay: cell-based or functional assay; remark: listed apart in the source
[7] = target: wild type human TSHR (human) (UniProt P16473); assay: cell-based or functional assay; remark: listed apart in the source
[8] = target: TSHR with Arg109 mutated to Alanine (human) (UniProt P16473); assay: cell-based or functional assay
[9] = target: TSHR coated onto tubes (human) (UniProt P16473); assay: TSHR coated tubes, competitor 125I-5C9 IgG

5C9 IgG (antibody), sequence (VH): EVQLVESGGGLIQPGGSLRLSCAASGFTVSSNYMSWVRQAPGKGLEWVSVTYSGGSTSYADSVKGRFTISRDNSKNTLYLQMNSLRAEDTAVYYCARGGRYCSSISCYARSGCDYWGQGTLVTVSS
5C9 IgG (antibody), sequence (VL): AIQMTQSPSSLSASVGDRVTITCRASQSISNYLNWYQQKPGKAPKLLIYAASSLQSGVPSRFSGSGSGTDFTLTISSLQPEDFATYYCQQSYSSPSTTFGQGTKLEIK

With 5C9 IgG (antibody) the % inhib of 125I-M22 IgG binding at 0.01 µg/mL [1] was 5%, the % inhib of 125I-M22 IgG binding at 0.1 µg/mL [1] was 6% and the % inhib of 125I-M22 IgG binding at 1 µg/mL [1] was 14%. The % inhib of 125I-M22 IgG binding at 10 µg/mL [1] was 22%, the % inhib of 125I-M22 IgG binding at 100 µg/mL [1] was 53% and the Mutated/wild type (%); 5C9 0.01 µg/mL + TSH [2] was 148%. The Mutated/wild type (%); 5C9 0.1 µg/mL + TSH [2] was 158%, the Mutated/wild type (%); 5C9 1.0 µg/mL + TSH [2] was 94% and the Mutated/wild type (%); 5C9 10 µg/mL + TSH [2] was 132%. For the same substance, the Mutated/wild type (%); 5C9 100 µg/mL + TSH [2] was 148%, the Mutated/wild type (%); 5C9 100 µg/mL only [2] was 157% and the cyclic AMP; 5C9 0.01 µg/mL + TSH (fmol/cell well) [2] was 18300. For the same substance, the cyclic AMP; 5C9 0.1 µg/mL + TSH (fmol/cell well) [2] was 10600, the cyclic AMP; 5C9 1.0 µg/mL + TSH (fmol/cell well) [2] was 2590 and the cyclic AMP; 5C9 10 µg/mL + TSH (fmol/cell well) [2] was 1610. The cyclic AMP; 5C9 100 µg/mL + TSH (fmol/cell well) [2] was 2330, the cyclic AMP; 5C9 100 µg/mL only (fmol/cell well) [2] was 409 and the cyclic AMP; 5C9 0.01 µg/mL + TSH (fmol/cell well) [3] was 12400. For the same substance, the cyclic AMP; 5C9 0.1 µg/mL + TSH (fmol/cell well) [3] was 6690, the cyclic AMP; 5C9 1.0 µg/mL + TSH (fmol/cell well) [3] was 2750 and the cyclic AMP; 5C9 10 µg/mL + TSH (fmol/cell well) [3] was 1220. For the same substance, the cyclic AMP; 5C9 100 µg/mL + TSH (fmol/cell well) [3] was 1570, the cyclic AMP; 5C9 100 µg/mL only (fmol/cell well) [3] was 260 and the % inhib of 125I-TSH binding at 0.01 µg/mL [4] was 2%. It also gave a % inhib of 125I-TSH binding at 0.1 µg/mL [4] of 8%, a % inhib of 125I-TSH binding at 1 µg/mL [4] of 21% and a % inhib of 125I-TSH binding at 10 µg/mL [4] of 30%. For the same substance, the % inhib of 125I-TSH binding at 100 µg/mL [4] was 50%, the Mutated/wild type (%); 5C9 0.01 µg/mL + TSH [5] was 115% and the Mutated/wild type (%); 5C9 0.1 µg/mL + TSH [5] was 488%. The Mutated/wild type (%); 5C9 1.0 µg/mL + TSH [5] was 1270%, the Mutated/wild type (%); 5C9 10 µg/mL + TSH [5] was 2040% and the Mutated/wild type (%); 5C9 100 µg/mL + TSH [5] was 3240%. It also gave a Mutated/wild type (%); 5C9 100 µg/mL only [5] of 203%, a cyclic AMP; 5C9 0.01 µg/mL + TSH (fmol/cell well) [5] of 12200 and a cyclic AMP; 5C9 0.1 µg/mL + TSH (fmol/cell well) [5] of 13300. The cyclic AMP; 5C9 1.0 µg/mL + TSH (fmol/cell well) [5] was 12800, the cyclic AMP; 5C9 10 µg/mL + TSH (fmol/cell well) [5] was 11200 and the cyclic AMP; 5C9 100 µg/mL + TSH (fmol/cell well) [5] was 15900. It also gave a cyclic AMP; 5C9 100 µg/mL only (fmol/cell well) [5] of 217, a cyclic AMP; 5C9 0.01 µg/mL + TSH (fmol/cell well) [6] of 10500 and a cyclic AMP; 5C9 0.1 µg/mL + TSH (fmol/cell well) [6] of 2710. For the same substance, the cyclic AMP; 5C9 1.0 µg/mL + TSH (fmol/cell well) [6] was 1010, the cyclic AMP; 5C9 10 µg/mL + TSH (fmol/cell well) [6] was 548 and the cyclic AMP; 5C9 100 µg/mL + TSH (fmol/cell well) [6] was 491. For the same substance, the cyclic AMP; 5C9 100 µg/mL only (fmol/cell well) [6] was 107, the cyclic AMP; 5C9 0.01 µg/mL + TSH (fmol/cell well) [7] was 10800 and the cyclic AMP; 5C9 0.1 µg/mL + TSH (fmol/cell well) [7] was 4010. The cyclic AMP; 5C9 1.0 µg/mL + TSH (fmol/cell well) [7] was 1210, the cyclic AMP; 5C9 10 µg/mL + TSH (fmol/cell well) [7] was 706 and the cyclic AMP; 5C9 100 µg/mL + TSH (fmol/cell well) [7] was 1230. It also gave a cyclic AMP; 5C9 100 µg/mL only (fmol/cell well) [7] of 228, a Mutated/wild type (%); 5C9 0.01 µg/mL + TSH [8] of 89% and a Mutated/wild type (%); 5C9 0.1 µg/mL + TSH [8] of 43%. It also gave a Mutated/wild type (%); 5C9 1.0 µg/mL + TSH [8] of 69%, a Mutated/wild type (%); 5C9 10 µg/mL + TSH [8] of 117% and a Mutated/wild type (%); 5C9 100 µg/mL + TSH [8] of 46%. The Mutated/wild type (%); 5C9 100 µg/mL only [8] was 147%, the cyclic AMP; 5C9 0.01 µg/mL + TSH (fmol/cell well) [8] was 9650 and the cyclic AMP; 5C9 0.1 µg/mL + TSH (fmol/cell well) [8] was 1720. The cyclic AMP; 5C9 1.0 µg/mL + TSH (fmol/cell well) [8] was 827, the cyclic AMP; 5C9 10 µg/mL + TSH (fmol/cell well) [8] was 827 and the cyclic AMP; 5C9 100 µg/mL + TSH (fmol/cell well) [8] was 561. For the same substance, the cyclic AMP; 5C9 100 µg/mL only (fmol/cell well) [8] was 335, the % inhib of 125I-5C9 IgG binding at 0.01 µg/mL [9] was 0% and the % inhib of 125I-5C9 IgG binding at 0.1 µg/mL [9] was 10%. For the same substance, the % inhib of 125I-5C9 IgG binding at 1 µg/mL [9] was 27%, the % inhib of 125I-5C9 IgG binding at 10 µg/mL [9] was 42% and the % inhib of 125I-5C9 IgG binding at 100 µg/mL [9] was 65.5%.
